Data from PMC11531568, “Single-molecule imaging and molecular dynamics simulations reveal early activation of the MET receptor in cells” (Nature Communications, 2024).

Target: the molecule itself
Assay: single-molecule photobleaching step analysis; U-2 OS cells labeled with a single Cy3B-labeled InlB321 variant; number of InlB321 in one spot on the plasma membrane

Row | Protein | stoichiometry N
1 | InlB321 K280C variant (with C242A), fluorophore-labeled (domain or fragment, Cy3B or ATTO 647N attached by maleimide chemistry to the single cysteine at position 280, Internalin B (InlB), invasion protein of Listeria monocytogenes, amino acids 36-321 of the full-length InlB (cap, leucine-rich repeat and inter-repeat region); The donor-labeled (Cy3B) and acceptor-labeled (ATTO 647N) batches of this variant are written as one molecule; Vector pETM30; also called T variant; tail) ETITVPTPIKQIFSDDAFAETIKDNLKKKSVTDAVTQNELNSIDQIIANNSDIKSVQGIQYLPNVTKLFLNGNKLTDIKPLANLKNLGWLFLDENKVKDLSSLKDLKKLKSLSLEHNGISDINGLVHLPQLESLYLGNNKITDITVLSRLTKLDTLSLEDNQISDIVPLAGLTKLQNLYLSKNHISDLRALAGLKNLDVLELFSQEALNKPINHQSNLVVPNTVKNTDGSLVTPEIISDDGDYECPNVKWHLPEFTNEVSFIFYQPVTIGKAKARFHGRVTQPLKE | 2
2 | InlB321 K64C variant (with C242A), fluorophore-labeled (domain or fragment, Cy3B or ATTO 647N attached by maleimide chemistry to the single cysteine at position 64, Internalin B (InlB), invasion protein of Listeria monocytogenes, amino acids 36-321 of the full-length InlB (cap, leucine-rich repeat and inter-repeat region); The donor-labeled (Cy3B) and acceptor-labeled (ATTO 647N) batches of this variant are written as one molecule; Vector pETM30; also called H variant; head) ETITVPTPIKQIFSDDAFAETIKDNLKKCSVTDAVTQNELNSIDQIIANNSDIKSVQGIQYLPNVTKLFLNGNKLTDIKPLANLKNLGWLFLDENKVKDLSSLKDLKKLKSLSLEHNGISDINGLVHLPQLESLYLGNNKITDITVLSRLTKLDTLSLEDNQISDIVPLAGLTKLQNLYLSKNHISDLRALAGLKNLDVLELFSQEALNKPINHQSNLVVPNTVKNTDGSLVTPEIISDDGDYEKPNVKWHLPEFTNEVSFIFYQPVTIGKAKARFHGRVTQPLKE | 2
